Measured values: paper PMC11240982, “Recapitulation of HIV-1 Neutralization Breadth in Plasma by the Combination of Two Broadly Neutralizing Antibodies from Different Lineages in the Same SHIV-Infected Rhesus Macaque” (International Journal of Molecular Sciences, 2024)

Biological target: T1, BG505 Env UFO (uncleaved prefusion-optimized) trimer with Avi tag (HIV-1 clade A, BG505, stabilised)
T1 construct: also called BG505 UFO trimer; BG505 UFO
Experiment: BLI; antibody (20 µg/mL) immobilised on Anti-hIgG-Fc Capture (AHC) biosensors; serially diluted BG505 UFO trimer or V3 peptide as analyte; OCTET Red96
Details: both partners purified

B1: JT18 (antibody, V domains shown)
VH: EVQLVQSGAEVKRPGESLRISCKTSGYDFTDYWINWVRQMPGKGLEWVGMVYPSDSETAYSPSFRGRVTISADTSISTSYLQWTSLEASDTATYYCARPVSGTFALDVWGRGVLVAVSS
VL: QSVLTQPPSMSGAPGQRVTMSCTGGNSNIGANLYVQWYQQVPGTAPRLLIYEDNQRPSGVSDRFSGSRSGSSASLTITGLQSEDEADYYCQSYDNSLSTVLFGGGTRLTVL
notes: IGHV5-20*02, IGHJ5-2*02, IGHD1-44*02, CDR3 12 aa; constant region added, not specified; IGLV1S1*01, IGLJ3*01, CDR3 11 aa; Recombinant IgG; constant regions not specified (captured on anti-human IgG Fc biosensors, detected with anti-monkey IgG); source: HEK293T, co-transfected linear expression fragments, in supernatant (screen); Expi293F, co-transfected plasmids, purified (protein A agarose)
Kd: 4.03 nM
